According to patent US6635459B1, “Nucleotide sequences encoding pinoresinol/lariciresinol reductase proteins and their methods of use” (Washington State University Research Foundation, priority 1996, dated 2003):

Tests used:
HW-1 = details: cited from earlier work
cAMP-phosphodiesterase = details: cited from earlier work
[1] = target: T1, 35 kDa form of (+)-pinoresinol/(+)-lariciresinol reductase (Forsythia intermedia, UniProt P93143); experiment: Initial velocity studies, reductase 35 kDa isoform; assay type: biochemical; details: 35 kDa form of the enzyme; NADPH 80 μM, pH 7.4, 30° C.
T1 construct: pure enzyme (after MonoQ anion-exchange chromatography); from tissue; host or cells: Forsythia intermedia stems
T1 sequence (P93143 2-312): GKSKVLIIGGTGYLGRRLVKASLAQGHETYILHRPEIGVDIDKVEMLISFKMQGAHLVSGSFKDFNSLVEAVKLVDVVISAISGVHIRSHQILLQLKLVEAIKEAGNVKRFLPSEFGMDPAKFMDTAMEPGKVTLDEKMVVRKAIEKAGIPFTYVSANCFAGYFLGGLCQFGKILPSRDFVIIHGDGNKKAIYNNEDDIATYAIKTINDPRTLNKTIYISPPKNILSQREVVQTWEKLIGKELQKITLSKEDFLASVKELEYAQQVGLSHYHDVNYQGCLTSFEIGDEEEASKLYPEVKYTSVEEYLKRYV
Procedure: (§1) Kinetic Parameters. […] The initial velocity studies were carried out individually utilizing the two isoforms of the enzyme, and individually employing both (+)-pinoresinol and (+)-lariciresinol as substrates. Initial velocity studies were performed in triplicate experiments, using 50 mM Bis-Tris Propane buffer, pH 7.4 containing 5 mM dithiothreitol, pure enzyme (after MonoQ anion-exchange chromatography), ten different substrate concentrations (between 8.8 and 160 μM) at a constant NADPH concentration (80 μM). Incubations were carried out at 30° C. for 10 min (within the linear kinetic range). Kinetic parameters were determined from Lineweaver-Burk plots.

[2] = target: 36 kDa form of (+)-pinoresinol/(+)-lariciresinol reductase (Forsythia x intermedia, UniProt P93143); experiment: Initial velocity studies, reductase 36 kDa isoform; details: 36 kDa form of the enzyme; NADPH 80 μM, pH 7.4, 30° C.
Procedure: as §1

HIV = details: cited from earlier work
(±)-pinoresinols = experiment: Substrate specificity of recombinant Thuja plicata reductases expressed in E. coli; assay type: biochemical; details: β-galactosidase fusion in E. coli total protein extract, 3 hour incubation at 30° C.
E-coniferyl alcohol [3] = experiment: E-coniferyl alcohol coupling assay (oxidant with/without dirigent protein); assay type: biochemical, Forsythia intermedia; details: dirigent protein (770 pmol ml^−1) alone, no added oxidant; 6 hour assay
Procedure: E-coniferyl alcohol coupling assay. E-[9-^3H]Coniferyl alcohol (4 μmol ml^−1, 29.3 kBq) was incubated with a 120-kD laccase (previously purified from Forsythia intermedia stem tissue) over a […], in the presence and absence of the dirigent protein, as follows. Each assay consisted of E-[9-^3H]coniferyl alcohol (4 μmol ml^−1, 29.3 kBq, 7.3 MBq mole liter^−1; or 2 μmol ml^−1, 14.7 kBq with fraction III), the 78-kD dirigent protein, an oxidase or oxidant, or both [final concentrations: 770 pmol ml^−1 dirigent protein; 10.7 pmol protein ml^−1 Forsythia laccase; 12 μg protein ml^−1 fraction III; 0.5 μmol ml^−1 FMN; 0.5 μmol ml^−1 FAD; 1 and 10 μmol ml^−1 ammonium peroxydisulfate] in buffer (0.1 M MES-HEPES-sodium acetate, pH 5.0) to a total volume of 250 μl. The enzymatic reaction was initiated by addition of E-[9-^3H]coniferyl alcohol. Controls were performed in the presence of buffer alone.
After one hour incubation at 30° C. while shaking, the assay mixture was extracted with ethyl acetate (EtOAc, 500 μl) containing (±)-pinoresinols (7.5 μg), (±)-dehydrodiconiferyl alcohols (3.5 μg) and erythro/threo (±)-guaiacylglycerol 8-O-4′-coniferyl alcohol ethers (7.5 μg) as radiochemical carriers and ferulic acid (15.0 μg) as an internal standard. After centrifugation (13,800 g, 5 min), the EtOAc soluble components were removed and the extraction procedure repeated with EtOAc (500 μl). The EtOAc soluble components from each assay were combined, the solutions evaporated to dryness in vacuo, redissolved in methanol-water solution (1:1; 100 μl) with an aliquot (50 μl) thereof subjected to reversed-phase column chromatography (Waters, Nova-Pak C18, 150 mm by 3.8 mm). The elution conditions were as follows: acetonitrile/3% acetic acid in H2O (5:95) from 0 to 5 min, then linear gradients to ratios of 10:90 between 5 and 20 min, then to 20:80 between 20 and 45 min and finally to 50:50 between 45 and 60 min, at a flow rate of 8.8 ml min^−1 cm^−2.
Fractions corresponding to E-coniferyl alcohol, erythro/threo (±)-guaiacylglycerol 8-O-4′-coniferyl alcohol ethers, (±)-dehydrodiconiferyl alcohols and (±)-pinoresinols were individually collected, aliquots removed for liquid scintillation counting, and the remainder freeze-dried. Pinoresinol-containing fractions were redissolved in methanol (100 μl) and subjected to chiral column chromatography (Daicel, Chiralcel OD, 50 mm by 4.6 mm) with a solution of hexanes and ethanol (1:1) as the mobile phase (flow rate 3 ml min^−1 cm^−2), whereas dehydrodiconiferyl alcohol fractions were subjected to Chiralcel OF (250 mm by 4.6 mm) column chromatography eluted with a solution of hexanes and isopropanol (9:1) as the mobile phase (flow rate 2.4 ml min^−1 cm^−2), the radioactivity of the eluent being measured with a flow-through detector (Radiomatic, Model A120).
Ammonium peroxydisulfate readily undergoes homolytic cleavage (A. Usaitis, R. Makuska, Polymer 35:4896 (1994)) and is routinely used as an one-electron oxidant in acrylamide polymerization. Ammonium peroxydisulfate was first incubated with E-[9-^3H]coniferyl alcohol (4 μmol ml^−1, 29.3 kBq) for 6 hours using the E-coniferyl alcohol coupling assay procedure described above.

E-sinapyl alcohol = E-sinapyl alcohol coupling assay (oxidant with/without dirigent protein); assay type: biochemical, Forsythia intermedia; details: dirigent protein (770 pmol ml^−1) alone, no added oxidant; 6 hour assay
Procedure: Investigation of Substrate-Specific Stereoselectivity. The coupling stereoselectivity was substrate specific. Neither E-p-[9-^3H]coumaryl (4 μmol ml^−1, 44.5 kBq) or E-[8-^14C]sinapyl alcohols (4 μmol ml^−1, 8.3 kBq), which differ from E-coniferyl alcohol only by a methoxyl group substituent on the aromatic ring, yielded stereoselective products when incubated for 6 hours with FMN and ammonium peroxydisulfate respectively, in the presence and absence of the dirigent protein. Incubations were carried out as described above with the following modifications: E-p-[9-^3H]coumaryl (4 μmol ml^−1, 44.5 kBq) or E-[8-^14C]sinapyl alcohols (4 μmol ml^−1, 8.3 kBq) were used as substrates and, after 6 hour incubation at 30° C., the reaction mixture was extracted with EtOAc but without addition of radiochemical carriers.

E-coniferyl alcohol [4] = experiment: Kinetic characterization of conversion of E-coniferyl alcohol to (+)-pinoresinol with dirigent protein and oxidase/oxidant; assay type: biochemical, Forsythia intermedia; details: (+)-pinoresinol formation from E-coniferyl alcohol, dirigent protein 770 pmol ml^−1 alone or with Fraction III 12 μg protein ml^−1, laccase 2.07 pmol ml^−1, FMN 0.5 μmol ml^−1
Procedure: Assays were carried out as described in Example 3 by incubating a series of E-[9-^3H]coniferyl alcohol concentrations (between 8.00 and 0.13 μmol ml^−1, 7.3 MBq mole literl) with dirigent protein (770 pmol ml^−1) alone and in presence of Forsythia laccase (2.1 pmol ml^−1), fraction III (12 μg protein ml^−1), or FMN (0.5 μmol ml^−1). Assays with dirigent protein, in presence or absence of FMN, were incubated at 30° C. for 1 hour, whereas assays with Forsythia laccase or fraction III in presence or absence of dirigent protein were incubated at 30° C. for 15 min. If free-radical capture by the dirigent protein is the operative mechanism, the Michaelis-Menten parameters obtained will only represent formal rather than true values, because the highest free-energy intermediate state during the conversion of E-coniferyl alcohol into (+)-pinoresinol is still unknown and the relation between the concentration of substrate and that of the corresponding intermediate free-radical in open solution has not been delineated.
Bearing these qualifications in mind, we estimated formal Km and Vmax values for the dirigent protein preparation.

E-coniferyl alcohol [5] = experiment: (+)-Pinoresinol-forming activity from E-[9-3H]coniferyl alcohol; assay type: biochemical, Forsythia intermedia

For `COc1cc(C[C@]2(O)C(=O)OC[C@H]2Cc2ccc(OC)c(OC)c2)ccc1O` (single isomer, unassigned) [(+)-enantiomer], the “inhibition of in vitro replication of HW-1” value (HW-1) is listed as “much less effective”.

For `COc1cc(C[C@H]2COC(=O)[C@@H]2Cc2ccc(O)c(OC)c2)ccc1O` [matairesinol], the cAMP-phosphodiesterase inhibition (cAMP-phosphodiesterase) is listed as “inhibit cAMP-phosphodiesterase”.

With (+)-pinoresinol the Km [1] was 27 ± 1.5 µM, the “Vmax (apparent maximum velocity)” value [1] was 16.2±0.4 μmol h^−1 mg^−1 of protein and the Km [2] was 23 ± 1.3 µM. For the same molecule, the “Vmax (apparent maximum velocity)” value [2] was 17.3±0.5 μmol h^−1 mg^−1 of protein.

In the case of (−)-trachelogenin, the “effectiveness against HIV (reverse transcriptase inhibitory activities)” value (HIV) is given as “effective against HIV” and the “inhibition of in vitro replication of HW-1” value (HW-1) is given as “inhibits”.

B1: plr-Tp1: Thuja plicata (−)-pinoresinol/(−)-lariciresinol reductase (SEQ ID NO:62) expressed in E. coli (protein)
chain: MDKKSRVLIVGGTGYIGKRIVNASISLGHPTYVLFRPEVVSNIDKVQMLLYFKQLGAKLIEASLDDHQRLVDALKQVDVVISALAGGVLSHHILEQLKLVEAIKEAGNIKRFLPSEFGMDPDIMEHALQPGSITFIDKRKVRRAIEAASIPYTYVSSNMFAGYFAGSLAQLDGHMMPPRDKVLIYGDGNVKGIWVDEDDVGTYTIKSIDDPQTLNKTMYIRPPMNILSQKEVIQIWERLSEQNLDKIYISSQDFLADMKDKSYEEKIVRCHLYQIFFRGDLYNFEIGPNAIEATKLYPEVKYVTMDSYLERYV
In the case of B1, the substrate specificity ((±)-pinoresinols) is reported as “can use both (−)-pinoresinol and (+)-pinoresinol as substrates”.

B2: Dirigent protein: 78-kD protein purified from Forsythia intermedia stems that guides stereoselective coupling of E-coniferyl alcohol radicals to (+)-pinoresinol (protein)
chain: MVSKTQIVALFLCFLTSTSSATYGRKPRPRRPCKELVFYFHDVLFKGNNYHNATSAIVGSPQWGNKTAMAVPFNYGDLVVFDDPITLDNNLHSPPVGRAQGMYFYDQKNTYNAWLGFSFLFNSTKYVGTLNFAGADPLLNKTRDISVIGGTGDFFMARGVATLMTDAFEGDVYFRLRVDINLYECW
In the case of B2, the “(+)-Pinoresinol” value (E-coniferyl alcohol [3]) is reported as 55 ± 1 nmol/mL, the “(±)-Dehydro-diconiferyl alcohols” value (E-coniferyl alcohol [3]) is reported as 8 ± 1 nmol/mL and the “(±)-Guaiacyl-glycerol 8-O-4′-coniferyl alcohol ethers” value (E-coniferyl alcohol [3]) is reported as 5 ± 1 nmol/mL. For the same molecule, the “(±)-Pinoresinols” value (E-coniferyl alcohol [3]) was 0 nmol/mL, the “E-Coniferyl alcohol in dimer equivalents depleted” value (E-coniferyl alcohol [3]) was 61 ± 20 nmol/mL and the Total dimers (E-coniferyl alcohol [3]) was 68 ± 3 nmol/mL. The “E-Sinapyl alcohol in dimer equivalents depleted” value (E-sinapyl alcohol) was 110 ± 10 nmol/mL, the “Racemic (±)-syringaresinols” value (E-sinapyl alcohol) was 50 ± 10 nmol/mL and the Vmax (E-coniferyl alcohol [4]) was 0.02 ± 0.02 mol s^−1 mol^−1 dirigent protein. For the same molecule, the Vmax (E-coniferyl alcohol [4]; listed as dirigent protein) was 0.02±0.02 mol s^−1 mol^−1 dirigent prote, the Km (E-coniferyl alcohol [4]; read-out: Formal Km) was 10000 ± 6000 µM and the “(+)-pinoresinol-forming activity” value (E-coniferyl alcohol [5]; E-[9-3H]coniferyl alcohol as substrate for one hour) was < 5 % of total activity loaded onto the POROS SP-M column. For the same molecule, the “(+)-pinoresinol formation (residual oxidizing capacity)” value (E-coniferyl alcohol [5]; protein by itself, over 10 hours) was under 5%.

B3: plr-Tp2: Thuja plicata (+)-pinoresinol/(+)-lariciresinol reductase (SEQ ID NO:64) expressed in E. coli (protein)
chain: MEESSRVLIVGGTGYIGRRIVKASIALGHPTFILFRKEVVSDVEKVEMLLSFKKNGAKLLEASFDDHESLVDAVKQVDVVISAVAGNHMRHHILQQLKLVEAIKEAGNIKRFVPSEFGMDPGLMEHAMAPGNIVFIDKIKVREAIEAASIPHTYISANIFAGYLVGGLAQLGRVMPPSEKVILYGDGNVKAVWVDEDDVGIYTIKAIDDPHTLNKTMYIRPPLNILSQKEVVEKWEKLSGKSLNKINISVEDFLAGMEGQSYGEQIGISHFYQMFYRGDLYNFEIGPNGVEASQLYPEVKYTTVDSYMERYL
In the case of B3, the substrate specificity ((±)-pinoresinols) is reported as “same substrate specificity and product formation as the original Forsythia intermedia reductase”.
